Data reported in paper PMC9482650, “Quantitative fragmentomics allow affinity mapping of interactomes” (Nature Communications, 2022).

T1: APBA2_2, Q99767
T1 sequence (Q99767 654-744, limits assumed, looked up): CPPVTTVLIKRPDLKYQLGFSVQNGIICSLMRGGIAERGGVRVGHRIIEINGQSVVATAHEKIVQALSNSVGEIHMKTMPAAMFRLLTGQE

T2: DVL3, Q92997
T2 sequence (Q92997 244-331, limits assumed, looked up): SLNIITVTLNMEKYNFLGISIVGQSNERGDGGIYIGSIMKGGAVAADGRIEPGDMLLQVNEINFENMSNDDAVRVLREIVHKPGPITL

T3: LIN7C, Q9NUP9
T3 sequence (Q9NUP9 88-185, limits assumed, looked up): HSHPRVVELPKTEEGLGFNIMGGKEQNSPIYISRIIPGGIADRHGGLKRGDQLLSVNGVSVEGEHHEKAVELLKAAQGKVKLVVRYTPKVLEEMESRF

T4: NHERF3_3, Q5T2W1
T4 sequence (Q5T2W1 238-333, limits assumed, looked up): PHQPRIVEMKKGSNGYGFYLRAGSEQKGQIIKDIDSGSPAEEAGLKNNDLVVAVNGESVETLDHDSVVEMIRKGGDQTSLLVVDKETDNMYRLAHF

T5: APBA1_1, Q02410
T5 sequence (Q02410 651-752, limits assumed, looked up): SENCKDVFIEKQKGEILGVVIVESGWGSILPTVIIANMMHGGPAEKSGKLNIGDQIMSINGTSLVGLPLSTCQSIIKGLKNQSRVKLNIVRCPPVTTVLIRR

T6: MPDZ_10, O75970
T6 sequence (O75970 1624-1722, limits assumed, looked up): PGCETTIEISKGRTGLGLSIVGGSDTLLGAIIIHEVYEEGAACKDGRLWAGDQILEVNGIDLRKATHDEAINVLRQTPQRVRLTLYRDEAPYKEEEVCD

T7: LNX2_2, Q8N448
T7 sequence (Q8N448 334-432, limits assumed, looked up): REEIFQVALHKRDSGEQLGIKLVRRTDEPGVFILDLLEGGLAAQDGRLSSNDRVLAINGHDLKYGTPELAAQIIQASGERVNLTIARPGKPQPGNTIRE

T8: APBA1_2, Q02410
T8 sequence (Q02410 742-832, limits assumed, looked up): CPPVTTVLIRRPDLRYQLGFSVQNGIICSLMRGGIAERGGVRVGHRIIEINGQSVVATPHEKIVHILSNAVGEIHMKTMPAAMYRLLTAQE

T9: SNTA1, Q13424
T9 sequence (Q13424 82-180, limits assumed, looked up): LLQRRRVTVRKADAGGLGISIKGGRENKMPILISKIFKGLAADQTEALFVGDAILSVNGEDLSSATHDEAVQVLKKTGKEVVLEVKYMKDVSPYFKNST

T10: APBA2_1, Q99767
T10 sequence (Q99767 563-664, limits assumed, looked up): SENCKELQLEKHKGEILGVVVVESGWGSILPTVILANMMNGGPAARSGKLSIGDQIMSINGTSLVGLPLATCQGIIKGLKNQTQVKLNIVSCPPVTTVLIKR

T11: HTRA3, P83110
T11 sequence (P83110 354-453, limits assumed, looked up): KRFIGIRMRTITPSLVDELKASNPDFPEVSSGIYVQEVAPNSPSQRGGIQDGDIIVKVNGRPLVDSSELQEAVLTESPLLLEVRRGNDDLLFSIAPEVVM

T12: GRIP1_4, Q9Y3R0
T12 sequence (Q9Y3R0 467-571, limits assumed, looked up): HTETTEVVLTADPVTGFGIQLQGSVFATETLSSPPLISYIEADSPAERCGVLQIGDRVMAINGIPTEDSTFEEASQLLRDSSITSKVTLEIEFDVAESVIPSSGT

T13: LNX2_3, Q8N448
T13 sequence (Q8N448 463-564, limits assumed, looked up): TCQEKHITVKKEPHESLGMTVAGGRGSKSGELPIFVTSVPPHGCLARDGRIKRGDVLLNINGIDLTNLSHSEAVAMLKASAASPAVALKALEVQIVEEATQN


Tests used:
Assay in all cases: holdup assay
Design in all cases: key: below the threshold = too weak to quantify, mostly under pKd 3.1 to 4
Details in all cases: plain residues with an end cap or a label only (N-terminal biotin on a linker: ado-ado)
APBA2_2, Q99767 = molecular target: T1, APBA2_2, Q99767
NHERF4_2, Q86UT5 = molecular target: NHERF4_2, Q86UT5
LNX1_2, Q8TBB1 = molecular target: LNX1_2, Q8TBB1
DVL3, Q92997 = molecular target: T2, DVL3, Q92997
LIN7C, Q9NUP9 = molecular target: T3, LIN7C, Q9NUP9
LNX1_3, Q8TBB1 = molecular target: LNX1_3, Q8TBB1
NHERF3_3, Q5T2W1 = molecular target: T4, NHERF3_3, Q5T2W1
APBA1_1, Q02410 = molecular target: T5, APBA1_1, Q02410
GRIP2_4, Q9C0E4 = molecular target: GRIP2_4, Q9C0E4
NHERF4_4, Q86UT5 = molecular target: NHERF4_4, Q86UT5
MPDZ_10, O75970 = molecular target: T6, MPDZ_10, O75970
SCRIB_1, Q14160 = molecular target: SCRIB_1, Q14160
LNX2_2, Q8N448 = molecular target: T7, LNX2_2, Q8N448
APBA1_2, Q02410 = molecular target: T8, APBA1_2, Q02410
PDLIM1, O00151 = molecular target: PDLIM1, O00151
SNTA1, Q13424 = molecular target: T9, SNTA1, Q13424
APBA2_1, Q99767 = molecular target: T10, APBA2_1, Q99767
HTRA3, P83110 = molecular target: T11, HTRA3, P83110
GRID2IP_1, A4D2P6 = molecular target: GRID2IP_1, A4D2P6
GRIP1_4, Q9Y3R0 = molecular target: T12, GRIP1_4, Q9Y3R0
FRMPD2_3, Q68DX3 = molecular target: FRMPD2_3, Q68DX3
DLG4_1, P78352 = molecular target: DLG4_1, P78352
Inadl_4, Q8NI35 = molecular target: Inadl_4, Q8NI35
MAGI2_2, Q86UL8 = molecular target: MAGI2_2, Q86UL8
LNX2_3, Q8N448 = molecular target: T13, LNX2_3, Q8N448

Inadl_4, Q8NI35, sequence (Q8NI35 547-651): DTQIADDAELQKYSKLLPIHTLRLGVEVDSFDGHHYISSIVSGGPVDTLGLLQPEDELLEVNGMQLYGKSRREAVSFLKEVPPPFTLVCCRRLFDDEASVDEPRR
FRMPD2_3, Q68DX3, sequence (Q68DX3 1073-1166): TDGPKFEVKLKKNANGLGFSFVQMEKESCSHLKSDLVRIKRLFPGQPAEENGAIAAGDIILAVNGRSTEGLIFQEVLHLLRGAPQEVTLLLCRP
GRIP2_4, Q9C0E4, sequence (Q9C0E4 446-548): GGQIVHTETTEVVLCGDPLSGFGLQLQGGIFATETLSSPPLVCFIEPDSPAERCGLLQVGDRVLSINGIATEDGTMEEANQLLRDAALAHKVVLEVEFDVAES
LNX1_3, Q8TBB1, sequence (Q8TBB1 500-596): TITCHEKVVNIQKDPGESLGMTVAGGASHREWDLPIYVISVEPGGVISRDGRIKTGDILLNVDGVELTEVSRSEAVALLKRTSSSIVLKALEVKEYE
PDLIM1, O00151, sequence (O00151 1-87): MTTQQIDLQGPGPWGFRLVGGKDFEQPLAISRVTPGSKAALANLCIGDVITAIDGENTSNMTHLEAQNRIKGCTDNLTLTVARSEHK
LNX1_2, Q8TBB1, sequence (Q8TBB1 371-470): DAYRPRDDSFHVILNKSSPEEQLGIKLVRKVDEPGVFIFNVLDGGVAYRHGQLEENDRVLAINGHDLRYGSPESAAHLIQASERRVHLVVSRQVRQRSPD
NHERF4_4, Q86UT5, sequence (Q86UT5 464-550): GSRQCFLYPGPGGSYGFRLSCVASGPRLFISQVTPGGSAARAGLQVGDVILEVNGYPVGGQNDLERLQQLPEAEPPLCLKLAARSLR
SCRIB_1, Q14160, sequence (Q14160 718-814): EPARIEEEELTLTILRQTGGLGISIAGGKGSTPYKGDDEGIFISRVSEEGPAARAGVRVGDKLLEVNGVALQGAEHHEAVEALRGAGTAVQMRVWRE
DLG4_1, P78352, sequence (P78352 62-152): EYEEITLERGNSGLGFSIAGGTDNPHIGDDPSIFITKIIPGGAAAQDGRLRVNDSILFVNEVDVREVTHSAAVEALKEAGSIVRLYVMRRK
NHERF4_2, Q86UT5, sequence (Q86UT5 220-308): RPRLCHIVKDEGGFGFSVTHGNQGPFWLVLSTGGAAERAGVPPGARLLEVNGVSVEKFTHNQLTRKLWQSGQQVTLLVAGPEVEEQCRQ
GRID2IP_1, A4D2P6, sequence (A4D2P6 1-87): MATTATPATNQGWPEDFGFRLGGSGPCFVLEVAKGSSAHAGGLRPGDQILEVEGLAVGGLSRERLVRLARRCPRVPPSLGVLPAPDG
MAGI2_2, Q86UL8, sequence (Q86UL8 410-522): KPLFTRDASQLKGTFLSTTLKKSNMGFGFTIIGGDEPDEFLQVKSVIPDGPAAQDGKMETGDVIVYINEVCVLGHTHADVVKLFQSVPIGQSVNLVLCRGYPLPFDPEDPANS

Binder | pKd (APBA2_2, Q99767) | pKd (NHERF4_2, Q86UT5) | pKd (LNX1_2, Q8TBB1) | pKd (DVL3, Q92997) | pKd (LIN7C, Q9NUP9) | pKd (LNX1_3, Q8TBB1) | pKd (NHERF3_3, Q5T2W1) | pKd (APBA1_1, Q02410) | pKd (GRIP2_4, Q9C0E4) | pKd (NHERF4_4, Q86UT5) | pKd (MPDZ_10, O75970) | pKd (SCRIB_1, Q14160) | pKd (LNX2_2, Q8N448) | pKd (APBA1_2, Q02410) | pKd (PDLIM1, O00151) | pKd (SNTA1, Q13424) | pKd (APBA2_1, Q99767) | pKd (HTRA3, P83110) | pKd (GRID2IP_1, A4D2P6) | pKd (GRIP1_4, Q9Y3R0) | also measured
WRSKRTDTLL [RAMP3, O60896] | below the threshold | below the threshold | below the threshold | below the threshold | below the threshold | below the threshold | 3.48 | below the threshold | below the threshold | below the threshold | below the threshold | 3.92 | below the threshold | below the threshold | below the threshold | 3.59 | below the threshold | below the threshold | below the threshold | below the threshold | pKd (FRMPD2_3, Q68DX3): below the threshold; pKd (DLG4_1, P78352): 4.02; pKd (Inadl_4, Q8NI35): below the threshold; pKd (MAGI2_2, Q86UL8): 4.23; pKd (LNX2_3, Q8N448): below the threshold
REVVMRVTTV [MARCHF9, Q86YJ5] | below the threshold | 3.49 | 4.56 | below the threshold | 4.47 | below the threshold | below the threshold | below the threshold | below the threshold | below the threshold | 4.4 | 4.72 | 5.6 | 3.77 | below the threshold | 5.27 | below the threshold | 3.64 | below the threshold | below the threshold | pKd (FRMPD2_3, Q68DX3): below the threshold; pKd (DLG4_1, P78352): 5.06; pKd (Inadl_4, Q8NI35): below the threshold; pKd (MAGI2_2, Q86UL8): 5.14; pKd (LNX2_3, Q8N448): below the threshold

Second part, led by results:

pKd (APBA2_2, Q99767) | pKd (NHERF4_2, Q86UT5) | pKd (LNX1_2, Q8TBB1) | pKd (DVL3, Q92997) | pKd (LIN7C, Q9NUP9) | pKd (LNX1_3, Q8TBB1) | pKd (NHERF3_3, Q5T2W1) | pKd (APBA1_1, Q02410) | pKd (GRIP2_4, Q9C0E4) | pKd (NHERF4_4, Q86UT5) | pKd (MPDZ_10, O75970) | pKd (SCRIB_1, Q14160) | pKd (LNX2_2, Q8N448) | pKd (APBA1_2, Q02410) | pKd (PDLIM1, O00151) | pKd (SNTA1, Q13424) | pKd (APBA2_1, Q99767) | pKd (HTRA3, P83110) | pKd (GRID2IP_1, A4D2P6) | pKd (GRIP1_4, Q9Y3R0) | Binder | also measured
below the threshold | below the threshold | 3.73 | below the threshold | 4.79 | below the threshold | below the threshold | below the threshold | below the threshold | below the threshold | below the threshold | 4.41 | 4.71 | 3.65 | below the threshold | 4.98 | below the threshold | below the threshold | below the threshold | below the threshold | QELLEYETTV [XKR7, Q5GH72] | pKd (FRMPD2_3, Q68DX3): 3.63; pKd (DLG4_1, P78352): 4.94; pKd (Inadl_4, Q8NI35): below the threshold; pKd (MAGI2_2, Q86UL8): 3.76; pKd (LNX2_3, Q8N448): below the threshold
below the threshold | below the threshold | 3.78 | below the threshold | below the threshold | below the threshold | below the threshold | below the threshold | below the threshold | below the threshold | below the threshold | 3.72 | 5.05 | below the threshold | below the threshold | 3.79 | below the threshold | below the threshold | below the threshold | below the threshold | VISERNSTTV [C3AR1, Q16581] | pKd (FRMPD2_3, Q68DX3): below the threshold; pKd (DLG4_1, P78352): 4.58; pKd (Inadl_4, Q8NI35): below the threshold; pKd (MAGI2_2, Q86UL8): 4.51; pKd (LNX2_3, Q8N448): below the threshold
below the threshold | below the threshold | below the threshold | below the threshold | below the threshold | below the threshold | below the threshold | below the threshold | below the threshold | below the threshold | below the threshold | below the threshold | 5.03 | below the threshold | below the threshold | below the threshold | below the threshold | below the threshold | below the threshold | below the threshold | PDGEMMEVLI [AMOTL1, Q8IY63] | pKd (FRMPD2_3, Q68DX3): below the threshold; pKd (DLG4_1, P78352): below the threshold; pKd (Inadl_4, Q8NI35): below the threshold; pKd (MAGI2_2, Q86UL8): below the threshold; pKd (LNX2_3, Q8N448): below the threshold
